Measurements reported in patent US20200190192A1 (SUTRO BIOPHARMA, published 2020).

T1: cynomolgus Tim-3 expressed on CHO cells (cynomolgus monkey)
T1 construct: also called cTim-3; Cyno Tim-3 (CHO)
T1 chain: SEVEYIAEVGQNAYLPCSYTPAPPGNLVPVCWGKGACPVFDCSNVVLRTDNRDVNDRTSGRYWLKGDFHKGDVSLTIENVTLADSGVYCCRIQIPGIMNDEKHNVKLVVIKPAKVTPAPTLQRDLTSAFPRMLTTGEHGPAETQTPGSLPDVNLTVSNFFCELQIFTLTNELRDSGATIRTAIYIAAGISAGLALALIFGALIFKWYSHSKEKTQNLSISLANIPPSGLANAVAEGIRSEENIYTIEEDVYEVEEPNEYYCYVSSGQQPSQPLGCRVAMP


Legend:
[1] = biological target: T2, recombinant human Tim-3-Fc (R&D Systems, 2365-TM) (human, UniProt Q8TDQ0 22-202, biotinylated in the Galectin-9 competition ELISA (sites not given)); assay: SPR Biacore, human Tim-3 Fc;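 further: antibodies captured on an anti-FLAG sensor surface, Tim-3-Fc flowed over as analyte at 25 °C in HBS-EP+ buffer, rates fit with a 1:1 Langmuir model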
T2 construct: Bought protein; also called huTim-3-Fc; biotinylated Tim-3-Fc; not shown: Fc of the bought fusion protein

[2] = biological target: T2, recombinant human Tim-3-Fc (R&D …); assay: SPR Biacore, human Tim-3 Fc; KD estimated
[3] = biological target: T3, human Tim-3 expressed on the cell surface (human, UniProt Q8TDQ0 22-301); assay: flow cytometry, activated human CD4+ T cells
T3 construct: also called hTim-3; Human Tim-3 (CHO)

[4] = biological target: T3, human Tim-3 expressed on the cell …; assay: flow cytometry, CHO-human Tim-3 cells;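 further: antibodies bound on ice for 60 min, detected by PE anti-human IgG Fc secondary, mean fluorescence intensity fit to one-site specific binding with Hill slope, parental CHO cells as nonspecific control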
[5] = biological target: T1, cynomolgus Tim-3 expressed on CHO cells; assay: flow cytometry, CHO-cyno Tim-3 cells

Binder	koff [1] [s⁻¹]	Kd [2] [nM]	Kd [3] [nM]	Kd [4] [nM]	Kd [5] [nM]
h22E11-VK3-11 × h22E11-VH3-23 (antibody, V domains shown, Humanized m22E11) VH: EVQLLESGGGLVQPGGSLRLSCAVSGFSLTSYGVHWVRQAPGKGLEWLVVIWSDGSTTYNDSVKGRFTISKDNSKNTVYLQMNSLRAEDTAVYYCARQGGYRYDDAMDYWGQGTLVTVSS VL: EIVLTQSPATLSLSPGERATLSCKASQSVDYDGNSYVNWYQQKPGQAPRLLIYAASNLESGIPARFSGSGSGTDFTLTISSLEPEDFAVYYCQQSNEDPYTFGQGTKVEIK	0.000934	5.3	0.9	0.7	6.9
h22E11-VK3-11 × h22E11-VH5-51 (antibody, V domains shown, Humanized m22E11) VH: EVQLVQSGAEVKKPGESLKISCKVSGFSLTSYGVHWVRQMPGKGLEWLVVIWSDGSTTYNPSFQGQVTISKDKSISTVYLQWSSLKASDTAMYYCARQGGYRYDDAMDYWGQGTLVTVSS VL: EIVLTQSPATLSLSPGERATLSCKASQSVDYDGNSYVNWYQQKPGQAPRLLIYAASNLESGIPARFSGSGSGTDFTLTISSLEPEDFAVYYCQQSNEDPYTFGQGTKVEIK	0.000875	4.3	0.6	0.8	2.7
h22E11-5-IgG-LC × h22E11-VH3-23 (antibody, V domains shown, Humanized m22E11) VH: EVQLLESGGGLVQPGGSLRLSCAVSGFSLTSYGVHWVRQAPGKGLEWLVVIWSDGSTTYNDSVKGRFTISKDNSKNTVYLQMNSLRAEDTAVYYCARQGGYRYDDAMDYWGQGTLVTVSS VL: EIVLTQSPGTLSLSPGERATLSCKASQSVDYDGNSYVAWYQQKPGQAPRLLIYAASNLESGIPDRFSGSGSGTDFTLTISRLEPEDFAVYYCQQSNEDPYTFGQGTKVEIK	0.000895	5.3	1.2	0.8	13.2
h22E11-5-IgG-LC × h22E11-VH5-51 (antibody, V domains shown, Humanized m22E11) VH: EVQLVQSGAEVKKPGESLKISCKVSGFSLTSYGVHWVRQMPGKGLEWLVVIWSDGSTTYNPSFQGQVTISKDKSISTVYLQWSSLKASDTAMYYCARQGGYRYDDAMDYWGQGTLVTVSS VL: EIVLTQSPGTLSLSPGERATLSCKASQSVDYDGNSYVAWYQQKPGQAPRLLIYAASNLESGIPDRFSGSGSGTDFTLTISRLEPEDFAVYYCQQSNEDPYTFGQGTKVEIK	0.0011	5	–	–	–
h22E11-VK4-1 × h22E11-VH4-30-4 (antibody, V domains shown, Humanized m22E11) VH: QVQLQESGPGLVKPSQTLSLTCTVSGFSLTSYGVHWIRQPPGKGLEWLVVIWSDGSTTYNPSLKSRVTISKDTSKNQVSLKLSSVTAADTAVYYCARQGGYRYDDAMDYWGQGTLVTVSS VL: DIVLTQSPDSLAVSLGERATINCKASQSVDYDGNSYVNWYQQKPGQPPKLLIYAASNLESGVPDRFSGSGSGTDFTLTISSLQAEDVAVYYCQQSNEDPYTFGQGTKVEIK	0.00119	8.1	5.7	1.1	5
h22E11-VK3-11 × h22E11-VH4-30-4 (antibody, V domains shown, Humanized m22E11) VH: QVQLQESGPGLVKPSQTLSLTCTVSGFSLTSYGVHWIRQPPGKGLEWLVVIWSDGSTTYNPSLKSRVTISKDTSKNQVSLKLSSVTAADTAVYYCARQGGYRYDDAMDYWGQGTLVTVSS VL: EIVLTQSPATLSLSPGERATLSCKASQSVDYDGNSYVNWYQQKPGQAPRLLIYAASNLESGIPARFSGSGSGTDFTLTISSLEPEDFAVYYCQQSNEDPYTFGQGTKVEIK	0.00107	7.2	7.1	1	4.5
h22E11-VK4-1 × h22E11-VH5-51 (antibody, V domains shown, Humanized m22E11) VH: EVQLVQSGAEVKKPGESLKISCKVSGFSLTSYGVHWVRQMPGKGLEWLVVIWSDGSTTYNPSFQGQVTISKDKSISTVYLQWSSLKASDTAMYYCARQGGYRYDDAMDYWGQGTLVTVSS VL: DIVLTQSPDSLAVSLGERATINCKASQSVDYDGNSYVNWYQQKPGQPPKLLIYAASNLESGVPDRFSGSGSGTDFTLTISSLQAEDVAVYYCQQSNEDPYTFGQGTKVEIK	0.000881	4.8	0.6	0.8	1.9
h22E11-5-IgG-LC × h22E11-VH4-30-4 (antibody, V domains shown, Humanized m22E11) VH: QVQLQESGPGLVKPSQTLSLTCTVSGFSLTSYGVHWIRQPPGKGLEWLVVIWSDGSTTYNPSLKSRVTISKDTSKNQVSLKLSSVTAADTAVYYCARQGGYRYDDAMDYWGQGTLVTVSS VL: EIVLTQSPGTLSLSPGERATLSCKASQSVDYDGNSYVAWYQQKPGQAPRLLIYAASNLESGIPDRFSGSGSGTDFTLTISRLEPEDFAVYYCQQSNEDPYTFGQGTKVEIK	0.00117	7.6	–	3.7	–
h22E11-VK4-1 × h22E11-5-IgG-HC (antibody, V domains shown, Humanized m22E11) VH: EVQLVESGGGLVQPGGSLRLSCAVSGFSLTSYGVHWVRQAPGKGLEWLVVIWSDGSTTYNSALKSRFTISKDNAKNSVYLQMNSLRAEDTAVYYCARQGGYRYDDAMDYWGQGTLVTVSS VL: DIVLTQSPDSLAVSLGERATINCKASQSVDYDGNSYVNWYQQKPGQPPKLLIYAASNLESGVPDRFSGSGSGTDFTLTISSLQAEDVAVYYCQQSNEDPYTFGQGTKVEIK	0.000973	5.7	1.4	0.8	5.3
h22E11-VK1-39 × h22E11-VH1-69 (antibody, V domains shown, Humanized m22E11) VH: QVQLVQSGAEVKKPGSSVKVSCKVSGFSLTSYGVHWVRQAPGQGLEWLVVIWSDGSTTYNQKFQGRVTITKDESTSTVYMELSSLRSEDTAVYYCARQGGYRYDDAMDYWGQGTLVTVSS VL: DIQLTQSPSSLSASVGDRVTITCKASQSVDYDGNSYVNWYQQKPGKAPKLLIYAASNLESGVPSRFSGSGSGTDFTLTISSLQPEDFATYYCQQSNEDPYTFGQGTKVEIK	0.00094	6	2.6	0.6	1.7
h22E11-VK1-39 × h22E11-VH5-51 (antibody, V domains shown, Humanized m22E11) VH: EVQLVQSGAEVKKPGESLKISCKVSGFSLTSYGVHWVRQMPGKGLEWLVVIWSDGSTTYNPSFQGQVTISKDKSISTVYLQWSSLKASDTAMYYCARQGGYRYDDAMDYWGQGTLVTVSS VL: DIQLTQSPSSLSASVGDRVTITCKASQSVDYDGNSYVNWYQQKPGKAPKLLIYAASNLESGVPSRFSGSGSGTDFTLTISSLQPEDFATYYCQQSNEDPYTFGQGTKVEIK	0.000947	5.3	0.9	0.4	2.1
h22E11-VK1-39 × h22E11-VH4-30-4 (antibody, V domains shown, Humanized m22E11) VH: QVQLQESGPGLVKPSQTLSLTCTVSGFSLTSYGVHWIRQPPGKGLEWLVVIWSDGSTTYNPSLKSRVTISKDTSKNQVSLKLSSVTAADTAVYYCARQGGYRYDDAMDYWGQGTLVTVSS VL: DIQLTQSPSSLSASVGDRVTITCKASQSVDYDGNSYVNWYQQKPGKAPKLLIYAASNLESGVPSRFSGSGSGTDFTLTISSLQPEDFATYYCQQSNEDPYTFGQGTKVEIK	0.00126	9.1	–	0.7	5.5
h22E11-VK1-39 × h22E11-VH3-23 (antibody, V domains shown, Humanized m22E11) VH: EVQLLESGGGLVQPGGSLRLSCAVSGFSLTSYGVHWVRQAPGKGLEWLVVIWSDGSTTYNDSVKGRFTISKDNSKNTVYLQMNSLRAEDTAVYYCARQGGYRYDDAMDYWGQGTLVTVSS VL: DIQLTQSPSSLSASVGDRVTITCKASQSVDYDGNSYVNWYQQKPGKAPKLLIYAASNLESGVPSRFSGSGSGTDFTLTISSLQPEDFATYYCQQSNEDPYTFGQGTKVEIK	0.00094	5.6	1.1	0.5	4.5
h22E11-VK3-11 × h22E11-VH1-69 (antibody, V domains shown, Humanized m22E11) VH: QVQLVQSGAEVKKPGSSVKVSCKVSGFSLTSYGVHWVRQAPGQGLEWLVVIWSDGSTTYNQKFQGRVTITKDESTSTVYMELSSLRSEDTAVYYCARQGGYRYDDAMDYWGQGTLVTVSS VL: EIVLTQSPATLSLSPGERATLSCKASQSVDYDGNSYVNWYQQKPGQAPRLLIYAASNLESGIPARFSGSGSGTDFTLTISSLEPEDFAVYYCQQSNEDPYTFGQGTKVEIK	0.000867	4.9	4	1	2.8
h22E11-VK1-39 × h22E11-5-IgG-HC (antibody, V domains shown, Humanized m22E11) VH: EVQLVESGGGLVQPGGSLRLSCAVSGFSLTSYGVHWVRQAPGKGLEWLVVIWSDGSTTYNSALKSRFTISKDNAKNSVYLQMNSLRAEDTAVYYCARQGGYRYDDAMDYWGQGTLVTVSS VL: DIQLTQSPSSLSASVGDRVTITCKASQSVDYDGNSYVNWYQQKPGKAPKLLIYAASNLESGVPSRFSGSGSGTDFTLTISSLQPEDFATYYCQQSNEDPYTFGQGTKVEIK	0.00102	6.2	2.4	0.6	4.7
h22E11-5-IgG-LC × h22E11-VH1-69 (antibody, V domains shown, Humanized m22E11) VH: QVQLVQSGAEVKKPGSSVKVSCKVSGFSLTSYGVHWVRQAPGQGLEWLVVIWSDGSTTYNQKFQGRVTITKDESTSTVYMELSSLRSEDTAVYYCARQGGYRYDDAMDYWGQGTLVTVSS VL: EIVLTQSPGTLSLSPGERATLSCKASQSVDYDGNSYVAWYQQKPGQAPRLLIYAASNLESGIPDRFSGSGSGTDFTLTISRLEPEDFAVYYCQQSNEDPYTFGQGTKVEIK	0.000991	4.9	1.6	0.9	3
